The data set concerns the molecule itself. As to the kind of experiment: cryo-EM structure.

B1: human neutral amino acid transporter ASCT2 (natural protein)
chain: MVADPPRDSKGLAAAEPTANGGLALASIEDQGAAAGGYCGSRDQVRRCLRANLLVLLTVVAVVAGVALGLGVSGAGGALALGPERLSAFVFPGELLLRLLRMIILPLVVCSLIGGAASLDPGALGRLGAWALLFFLVTTLLASALGVGLALALQPGAASAAINASVGAAGSAENAPSKEVLDSFLDLARNIFPSNLVSAAFRSYSTTYEERNITGTRVKVPVGQEVEGMNILGLVVFAIVFGVALRKLGPEGELLIRFFNSFNEATMVLVSWIMWYAPVGIMFLVAGKIVEMEDVGLLFARLGKYILCCLLGHAIHGLLVLPLIYFLFTRKNPYRFLWGIVTPLATAFGTSSSSATLPLMMKCVEENNGVAKHISRFILPIGATVNMDGAALFQCVAAVFIAQLSQQSLDFVKIITILVTATASSVGAAGIPAGGVLTLAIILEAVNLPVDHISLILAVDWLVDRSCTVLNVEGDALGAGLLQNYVDRTESRSTEPELIQVKSELPLDPLPVPTEEGNPLLKHYRGPAGDATVASEKESVM
Consider B1, for which the stoichiometry N (as a rule, the number of molecules, sites or subunits per partner or assembly) amounted to 3.

These data come from publication PMC11297037 (Nature Communications, 2024).
